Test: yeast display, Sf9 membrane polyspecificity reagent, FACS + sequencing; frameworks hold sequencing errors
Method in brief: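 Using colony PCR, genes from sorted yeast display clones were amplified, then sequenced on MiSeq at 2 × 250 and filtered by CDR length. The clones had been stained with 10% biotinylated, detergent-solubilized Sf9 membrane reagent for 1 hour at 4 °C and sorted by FACS into low and high (top ~1%) gates on anti-HA and streptavidin fluorescence. Polyreactivity labels come from the gate of origin.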

Sequence	polyreactivity (PSR sort gate)
QVQLVESGGGLVQAGGSLRLSCAASGYTFRSYAMGWYRQAPGKEREFVASISSSGGSTYYADSVKGRFTISRDNAKNTVYLQMNSLKPEDTAVYYCAASVGSYPYDEYDYWGQGTQVTVSS	low polyreactivity
QVQLVESGGGLVQAGGSLRLSCAASGYTFRTNVMGWYRQAPGKERELVAAISSDGSTNYADSVKGRFTISRDNAKNTVYLQMNSLKPEDTAVYYCAAPWTQILDYWGQGTQVTVSS	low polyreactivity
QVQLVESGGGLVQAGGSLRLSCAASGYTFRWYVMGWYRQAPGKERELVAAISQSGGDTYYADSVKGRFTISRDNAKNTVYLQMNSLKPEDTAVYYCAVGRVGRFYYWGQGTQVTVSS	high polyreactivity
QVQLVESGGGLVQAGGSLRLSCAASGYTFRYNAMGWYRQAPGKERELVASITFSGGRTFYADSVKGRFTISRDNAKNTVYLQMNSLKPEDTAVYYCAAVRWGRRSGGLVAEYDYWGQGTQVTVSS	high polyreactivity
QVQLVESGGGLVQAGGSLRLSCAASGYTFRYNTLGGYSQAPGKEREFVAAISSGVGNTYFAVSVKGRFTISRDNAKNTVYLQMNSLKPEDTAVYYCNADYKSSYYWYLWYNYWGQGTQVTVSS	low polyreactivity
QVQLVESGGGLVQAGGSLRLSCAASGYTFSAYAMGWYRQAPGKERELVAVINRSGVRTYYADSVKGRFTISRDNAKNTVYLQMNSLKPEDTAVYYCAAPPRANLFDYWGQGTQVTVSS	high polyreactivity
QVQLVESGGGLVQAGGSLRLSCAASGYTFSFNAMGWYRKAPGKEREMVAAINRGTSTNYADSVKGRFTISRDNAKNTVYLQMNSLKPEDTAVYYCAAGFRRRAGRYDLDYWGQGTQVTVSS	high polyreactivity
QVQLVESGGGLVQAGGSLRLSCAASGYTFSQNAMGWYRPAPGKERELVAGITTRGTTTYYADSVKGRFTISRDNAKNTVYLQMNSLKPEDTAVYYCAADNSYTDNYWGQGTQVTVSS	low polyreactivity
QVQLVESGGGLVQAGGSLRLSCAASGYTFSTYAMGWYRQAPGKERELFAAISYSGGRTRYADSVKGRFTISRDNAKNTVYLQMNSLKPEDTAVYYCAAKSGYGYGYWGQGTQVTVSS	high polyreactivity
QVQLVESGGGLVQAGGSLRLSCAASGYTFSYNAMGWYRQAPGKERELVAAISRSGGSTYYADSVKGRFTISRDNAKNTVYLQMNSLKPEDTAVYYCAAKRVSVPYGYWGQGTQVTVSS	high polyreactivity
QVQLVESGGGLVQAGGSLRLSCAASGYTFTGYAMGGYRQAPGKERECVAGITWRTGRTYYADSVKGRFTISRDNAKNTGYLQMNSLIPEDTAVYYCNKDHQRGYYWSYDYWGQGTQVTVSS	low polyreactivity
QVQLVESGGGLVQAGGSLRLSCAASGYTFTGYAMGGYRQAPGKERELFATITRGGSTYYADSVKGRFTISRDNAKNTVYLPMNSLKPEDTAVYYCATRVQYYVKSTTQYGYGYWGQGTQVTVSS	low polyreactivity
QVQLVESGGGLVQAGGSLRLSCAASGYTFTIYAMGWYRQAPGKERELVAAITGGGGRTYYADSVKGRFTISRDNAKNTVYLQMNSLKPEDTAVYYCAASGPIVGMNYWGQGTQVTVSS	high polyreactivity
QVQLVESGGGLVQAGGSLRLSCAASGYTFTIYAMGWYRQAPGKERELVASISIDGSTYYADSVKGRFTISRDNAKNTVYLQMNSLKREDTAVYYCAADYYYYTPGFDYWGQGTQVTVSS	low polyreactivity
QVQLVESGGGLVQAGGSLRLSCAASGYTFTRNAMGWYRQAPGKERELVATISGSGGGTYYADSVKGRFTISRDNAKNTVYLQMNSLKPEDTAVNYCNARRWFYWQGTARYDYWGQGTQVTVSS	low polyreactivity
QVQLVESGGGLVQAGGSLRLSCAASGYTFVGYAMGWYRQAPGKERELVAAITNGGNTNYADSVKGRFTISRDNAKNTVYLQMNSLKPEDTAVYYCATRHSRRYSWIKYYGIGYDYWGQGTQVTVSS	high polyreactivity
QVQLVESGGGLVQAGGSLRLSCAASGYTFVIYAMGWYRQAPGKERELVAAITTIGGRTYYADSVKGRFTISRDNAKNTVYLQMNSLKPEDTAVYYCAADIRSNRLYDGGYWGQGTHVTVSS	low polyreactivity
QVQLVESGGGLVQAGGSLRLSCAASGYTFVLNAMGWYRQAPGKEREFVAAITWSGGSTYYADSVKGRFTISRDNAKNTVYLQMNSLNPEDTAVYYCAATAHYFGEYDYWGQGTQVTVSS	low polyreactivity
QVQLVESGGGLVQAGGSLRLSCAASGYTFVRYALGWYRQAPGKEMELVAAMSRSGGSTYYADSVKGRFTISRDNAKNTVYLQMNSLKPEDTAVYYCNAYPYSYYDYDYWGQGTQVTVSS	high polyreactivity
QVQLVESGGGLVQAGGSLRLSCAASGYTFVTYAMGWYRQAPGKERELVAAISYTGGSTYYADSEKGRFTISRDNAKNTVYLQMNSLKPEDTAVYYCNTRYSLYTKYAYYDEHDYWGQGTQVTVSS	low polyreactivity
QVQLVESGGGLVQAGGSLRLSCAASGYTFVYYAMGLYREAPGKERELVAAITSGGRTNYADSVKGRFTISRDNAKNTVYLQMNSLKPEDTAVYYCNVDGYYLFVRGYEYWGQGTQVTVSS	low polyreactivity

Sequence	polyreactivity (PSR sort gate)
QVQLVESGGGLVQAGGSLRLSCAASGYTFWRYAMGWYRQAPGKERELVAAISQSGGRTYYADSVKGRFTISRDNAKNTVYLQMNSLKPEDTAVYYCATSSTQGDDYWGQGTQVTVSS	high polyreactivity
QVQLVESGGGLVQAGGSLRLSCAASGYTFYANAMGWYRQAPGKEREFVASSTWSGGSTYYADSVKGRFTISRDNAKNTVYFQMNSLKPEDTAVYYCAADSWFKYDYWGQGTQVTVSS	low polyreactivity
QVQLVESGGGLVQAGGSLRLSCAASGYTFYFYARGWYRQAPGKERELGAAITGGGTTSYADSVKGRFTISRDNAKNTVYLQMNSLKPEDTAVYYCNLLFADKSDYWGQGTQVTVSS	low polyreactivity
QVQLVESGGGLVQAGGSLRLSCAASGYTFYINATGWYRQAPGKERELVAVITWSSGSTYYADSVKGRFTISRDNAKNTVYLQMNSLKPEDTAVYYCAADVTYEDGAWTIQYDYWGQGTQVTVSS	high polyreactivity
QVQLVESGGGLVQAGGSLRLSCAASGYTFYSNAMGWYRQAPGKETELVASIRSRGRSTYYADSVKGRFTISRDNAKNTVYLQMNSLKPEDTAVYYCAALPNKPAVYAYDYWGQGTQVTVSS	low polyreactivity
QVQLVESGGGLVQAGGSLRLSCAASGYTFYSYAMGWYRQAPGKERELFAAITESGARTYYADSVKGRFTISRDNAKNTVYLQMNSLKPEVTAVYYCAADYAWPLRVTGDYWGQGTQVTVSS	low polyreactivity
QVQLVESGGGLVQAGGSLRLSCAASGYTFYSYAMGWYRQEPGKERELVAAIRTGGGTIYADSVKGRFTISRDNAKNTVYLQMNSLKPEDTAVYYCAAESGYPVYTYVSSGDYWGQGTQVTVSS	low polyreactivity
QVQLVESGGGLVQAGGSLRLSCAASGYTIGNNAMGWYRQAPGKERELVARIRTNGGTTYYADSVKGRFTISRDYAKNTVYLQMISLKPEDTAVYYCIAYRGYEYDYWGQGTQVTVSS	low polyreactivity
QVQLVESGGGLVQAGGSLRLSCAASGYTLTINVMGWYRQAPGKERELVAAITSSGASTNYADSVKGRFTISRDNAKNTVYLQMNSLKPEDTAVYYCNVVNEHQSDFVVPFDYNHWGQGTQVTVSS	low polyreactivity
QVQLVESGGGLVQAGGSLRLSCAASGYTSKTYAMGWYRQAPGKERELVAAINWGSGSTYYADSVKGRFTISRDNAKNTVYFQMYSLKPEDTAVYYCAALVYGHRRLVGNLSRGYWGQGTQVTVSS	high polyreactivity
QVQLVESGGGLVQAGGSLRLSCAASGYTSSLNAMGWYRQAPGKERELVARITTDGTSTYYADSVKGRFTISRDNANNTVYLQMNSLKPEDTAVYYCAAEYSYVQFGFGYWGQGTQVTVSS	low polyreactivity
QVQLVESGGGLVQAGGSLRLSCAASGYTVWGYAMGWYRQAPGKERELVADITISGGSTYYADSVKGRFTISRDNAKNTVYLQMNSLKPDDSAVYYCAASRAFSWWLSYDYWGQGTQVTVSS	high polyreactivity
QVQLVESGGGLVQAGGSLRLSCAASGYTYGTYDMRWYRQAPGKERELVAAFSIGGSTNYADSVKGRFTISRDNAKNTVYLQMNSLKPEDTAVYYCAAEVNVGTLLLSVIVEDGDYWGQGTQVTVSS	low polyreactivity
QVQLVESGGGLVQAGGSLRLSCAASGYTYPQNAMGWYIKAPGKERDLFAAISRSGGSTNYADSVKGRNTISRDNAKNTVYLQMNILKPEDTAVYYCARYNYTRQTRVEYGYWGQCTQVTVSS	high polyreactivity
QVQLVESGGGLVQAGGSLRLSCAASGYYAMGWYRQAPGKERELVAAITWSGGTTYYADSVKGRFTISRDNAKNTVYLQMNSLKPEDTAVYYCNADFVRYTRHKKYYYWGQGTQVTVSS	low polyreactivity
QVQLVESGGGLVQAGGSLRLSCAASLIFANYAMGWYRQAPGKERELVAAISSVGRTYYADSVKGRFTISRDNAKNTVYLQMNSLKPEDTAVYYCAAESWFKYDYWGQGTQVTVSS	low polyreactivity
QVQLVESGGGLVQAGGSLRLSCAASRFIFWSYAMGWYIQAPGTEREMVAAIDMTGGSTYYADYVKGRFTISRDNAKNTVYLQMNSLKPEDTAVYYCNADGDTYAFTNSDSGFDYWGQGTQVTVSS	low polyreactivity
QVQLVESGGGLVQAGGSLRLSCAASRFIFWSYAMGWYRQAPGKERELVAAISWRGGSTYYADSVKGRFTISRDNAKNTVYLQMNSLKPEDTAVYYCAAESYNGYDYWGQGTQVTVSS	high polyreactivity
QVQLVESGGGLVQAGGSLRLSCAASRFLFWSYAMGWYRQAPGKERELVAAISWRGGSTYYADSVKGRFSISRDTAKNTVYLQMNSLKPEDTAVYYCAAERYNGYDYWGQGTQVTVSS	high polyreactivity
QVQLVESGGGLVQAGGSLRLSCAASRIFRGYAMGWYRQAPGKERELVAAIRRGGSTNYADSVKGRFTIARDNAKNTVYLQMNSLKPEDTAVYYCNAYLYFPRYDYWGQGTQVTVSS	high polyreactivity

Source: the nanobody polyreactivity screen of Harvey et al. (2022)
